Laboratory results published in paper PMC6961540.
Read-outs that look alike come from different tables or passages of the source.

How the values were obtained:
[1] = biological target: T1, Ago2 (Flag-tagged, HFT-Ago2) (UniProt Q9UKV8 1-859); experiment: pull-down
[2] = biological target: T1, Ago2 (Flag-tagged, HFT-Ago2); experiment: filter binding
[3] = biological target: T1, Ago2 (Flag-tagged, HFT-Ago2); experiment: competition filter binding
Ago2 (HaloTag-Ago2) [4] = biological target: T2, Ago2 (HaloTag-Ago2) (UniProt Q9UKV8 1-859); experiment: pull-down
[5] = biological target: T1, Ago2 (Flag-tagged, HFT-Ago2); experiment: pull-down; remark: listed apart in the source
Ago2 (HaloTag-Ago2) [6] = biological target: T2, Ago2 (HaloTag-Ago2); experiment: competition filter binding

T1 sequence (Q9UKV8 whole entry): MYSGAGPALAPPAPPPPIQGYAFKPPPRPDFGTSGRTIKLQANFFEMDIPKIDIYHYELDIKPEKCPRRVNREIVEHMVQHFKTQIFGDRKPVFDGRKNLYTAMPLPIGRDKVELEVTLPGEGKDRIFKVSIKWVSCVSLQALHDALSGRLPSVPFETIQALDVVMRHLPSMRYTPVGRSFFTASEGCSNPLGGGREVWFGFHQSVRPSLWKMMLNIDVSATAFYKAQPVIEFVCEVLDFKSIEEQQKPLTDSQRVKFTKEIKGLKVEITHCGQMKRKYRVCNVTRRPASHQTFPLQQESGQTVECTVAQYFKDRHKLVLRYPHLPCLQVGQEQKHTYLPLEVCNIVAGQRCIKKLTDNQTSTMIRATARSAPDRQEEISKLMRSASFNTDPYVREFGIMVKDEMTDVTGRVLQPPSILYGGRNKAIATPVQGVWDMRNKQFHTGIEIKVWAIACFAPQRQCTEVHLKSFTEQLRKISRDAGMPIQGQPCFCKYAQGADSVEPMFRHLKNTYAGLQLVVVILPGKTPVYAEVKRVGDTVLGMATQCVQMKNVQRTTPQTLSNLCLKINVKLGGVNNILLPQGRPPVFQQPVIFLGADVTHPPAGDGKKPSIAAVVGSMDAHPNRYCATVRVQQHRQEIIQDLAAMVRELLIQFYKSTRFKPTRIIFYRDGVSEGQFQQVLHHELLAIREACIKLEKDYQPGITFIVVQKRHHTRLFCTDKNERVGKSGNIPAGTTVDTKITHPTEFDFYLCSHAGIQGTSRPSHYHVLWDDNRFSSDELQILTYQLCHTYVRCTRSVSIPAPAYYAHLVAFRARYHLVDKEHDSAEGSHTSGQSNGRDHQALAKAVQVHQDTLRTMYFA
T2 sequence (Q9UKV8 whole entry): as above

B1: miR122-v1 guide / target-1 with swapped (4 nt) bridge (mixed)
RNA 1: UGGAGUGUGACAGCGGCGAAAG
RNA 2: CCGCAAAAACACUCCUAA
modifications: 5'-phosphate on guide
binding result [1]: binds

B2: miR122-v1 guide / target-1 (seed + sup) (mixed)
RNA 1: UGGAGUGUGACAGCGGCGAAAG
RNA 2: CCGCAAAAAAAAAAACACUCCUAA
modifications: 5'-phosphate on guide
Kd [2]: 5.6 ± 0.5 pM | binding signal [3]: ~13 fold bound over target-2

B3: miR122-v2 guide / target-1 (seed-only) (mixed)
RNA 1: UGGAGUGUGACACUAUCGAAAG
RNA 2: CCGCAAAAAAAAAAACACUCCUAA
modifications: 5'-phosphate on guide
binding result (Ago2 (HaloTag-Ago2) [4]): binds

B4: miR122-v1 guide / target-2 (seed-only) (mixed)
RNA 1: UGGAGUGUGACAGCGGCGAAAG
RNA 2: AUAGAAAAACACUCCUAA
modifications: 5'-phosphate on guide
binding result [5]: binds

B5: miR122-v2 guide / target-2 (seed + sup) (mixed)
RNA 1: UGGAGUGUGACACUAUCGAAAG
RNA 2: AUAGAAAAACACUCCUAA
modifications: 5'-phosphate on guide
binding signal (Ago2 (HaloTag-Ago2) [6]): ~5 fold bound over target-1
